Measured values as given in PMC6250052 (Neurobiology of disease, 2018).
Read-outs that look alike come from different tables or passages of the source.

B1: glutathione S-transferase (GST)-tagged OSCP (human oligomycin sensitivity conferring protein) (natural protein, UniProt P48047 24-213, looked up)
chain: FAKLVRPPVQVYGIEGRYATALYSAASKQNKLEQVEKELLRVAQILKEPKVAASVLNPYVKRSIKVKSLNDITAKERFSPLTTNLINLLAENGRLSNTQGVVSAFSTMMSVHRGEVPCTVTSASPLEEATLSELKTVLKSFLSQGQVLKLEAKTDPSILGGMIVRIGEKYVDMSVKTKIQKLGRAMREIV
B2: purified hCypD protein (human Cyclophilin D) (enzyme)
chain: not shown

Tests used:
Assay in all cases: pull-down
[1] = biological target: Aβ peptide (ApexBio)
[2] = biological target: Aβ peptide (ApexBio); remark: listed apart in the source
[3] = biological target: B1
[4] = biological target: B1; remark: listed apart in the source

Kd [1] [nM]	Kd [2] [nM]	Kd [3] [nM]	Kd [4] [nM]	Binder
88 ± 43	510 ± 71	–	–	B1
–	–	100 ± 15	60 ± 1	B2
